Source: publication PMC9867979, “Pab1 acetylation at K131 decreases stress granule formation in Saccharomyces cerevisiae”

Target: Pab1 RRM1-RRM2 (Saccharomyces cerevisiae, UniProt P04147 38-203)
Experiment: EMSA; protein titration up to 5000 nM; EMSA: 1x binding buffer (from 5x: 50 mM Tris-HCl pH 7.5, 750 mM KCl, 0.5 mM EDTA, 0.5 mM DTT) = 10 mM Tris-HCl, 150 mM KCl, 0.1 mM EDTA, 0.1 mM DTT, plus protein buffer (20 mM Tris-HCl pH 7.4, 100 mM KOAc, 2 mM MgOAc, 10% glycerol); 20 ul, 30 C, 30 min; 10% native PAGE, 0.4x TBE, 4 C
Conditions: protein: recombinant; tags: GST (pGEX-4T-1), removed with thrombin; label: Cy5 at both ends (as named); single strand

Pab1 RRM1-RRM2, sequence (P04147 38-203): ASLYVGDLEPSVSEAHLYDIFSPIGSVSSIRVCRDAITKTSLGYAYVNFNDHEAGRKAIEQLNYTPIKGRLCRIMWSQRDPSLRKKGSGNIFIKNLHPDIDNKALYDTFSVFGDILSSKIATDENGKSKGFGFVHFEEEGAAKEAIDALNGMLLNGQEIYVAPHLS

AAAAAAAAAAAAAAAAAAAA (ssRNA) [Cy5-Poly(A)20-Cy5]
binding result: binds
